# Measurements published in patent US20030148956A1 (PROCTER AND GAMBLE, published 2003).
# Ends that are not written are not given here.
# T1: CRF2R
# T1 sequence (Q13324 whole entry, species assumed, looked up): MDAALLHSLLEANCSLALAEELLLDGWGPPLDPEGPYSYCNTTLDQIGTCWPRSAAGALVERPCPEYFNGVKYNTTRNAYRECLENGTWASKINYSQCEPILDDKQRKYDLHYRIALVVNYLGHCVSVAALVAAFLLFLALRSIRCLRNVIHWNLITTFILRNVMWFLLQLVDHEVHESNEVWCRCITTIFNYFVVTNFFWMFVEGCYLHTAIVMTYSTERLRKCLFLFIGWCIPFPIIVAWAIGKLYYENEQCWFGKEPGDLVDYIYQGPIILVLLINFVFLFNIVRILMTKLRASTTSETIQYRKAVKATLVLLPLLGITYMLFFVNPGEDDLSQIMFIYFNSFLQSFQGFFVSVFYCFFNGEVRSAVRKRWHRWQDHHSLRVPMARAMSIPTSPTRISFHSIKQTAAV
# Legend:
# CRF1R = test: cell-based or functional assay
# CRF2R = molecular target: T1, CRF2R; test: cell-based or functional assay
CRF1R EC50 (CRF1R) [nM],CRF1R Emax (CRF1R) [%],CRF2R EC50 (CRF2R) [nM],CRF2R Emax (CRF2R) [%],Binder
> 100,9,4.47,99,IVLSLDVPIGLLQILLEQEKQEAAREQATTNARILARV-NH2 [SEQ ID NO 125]
> 100,7,13,91,IVLSLDVPIGLLQILLEQTRADAAREQATTNARILARV-NH2 [SEQ ID NO 126]
97.7,69,3.88,79,ZGPPISIDLPFQLLRKMIEIEKQEKEKQQATTNRLLLDTI (C-terminal amide) [SEQ ID NO 13]
> 100,–,7.79,–,IVLSLDVPIGLLQILLEQAKARAAREQATTNARILARV-NH2 [SEQ ID NO 127]
> 100,8,2.85,98,IVLSLDVPIGLLQILLEQTRARAAREQATTNARILARV-NH2 [SEQ ID NO 128]
> 100,–,3.83,–,IVLSLDVPIGLLQILLEQTKARAAREQATTNARILARV-NH2 [SEQ ID NO 129]
> 100,9,8.57,92,IVLSLDVPIGLLQILLEQARADAAREQATTNARILARV-NH2 [SEQ ID NO 130]
> 100,8,5.25,91,IVLSLDVPIGLLQILLEQAKADAAREQATTNARILARV-NH2 [SEQ ID NO 131]
> 100,8,7.53,88,IVLSLDVPIGLLQILLEQEKEKKRKETNARILARV-NH2 [SEQ ID NO 132]
> 100,4,12.2,88,IVLSLDVPIGLLQILLEQRRAAREQATTNARILARV-NH2 [SEQ ID NO 133]
> 100,7,> 100,19,IVLSLDVPIGLLQILLEQAAAAREQATTNARILARV-NH2 [SEQ ID NO 134]
> 100,6,> 100,76,IVLSLDVPIGLLQILLEQAARAAREQATTNARILARV-NH2 [SEQ ID NO 135]
> 100,8,23.4,68,IVLSLDVPIGLLQILLEQRAAREQATTNARILARV-NH2 [SEQ ID NO 136]
109,92,6.33,90,ZGPPISIDLPFQLLRKMIEIEKQEKEKQQATNNRLLLDTI (C-terminal amide) [SEQ ID NO 14]
> 100,4,36.9,100,IVLSLDVPIGLLQILLEQRARAAREQATTNARILARV-NH2 [SEQ ID NO 137]
> 100,5,59,46,IVLSLDVPIGLLQILLEQAAREQATTNARILARV-NH2 [SEQ ID NO 138]
> 100,4,42.6,60,IVLSLDVPIGLLQILLEQAAAREQATTNARILARV-NH2 [SEQ ID NO 139]
> 100,7,> 100,29,IVLSLDVPIGLLQILLEQARAAAREQATTNARILARV-NH2 [SEQ ID NO 141]
43.5,85.3,9.08,77,ZGPPISIDLSLELLRKMIEIEKQEKEKQQATTNARILARV (C-terminal amide) [SEQ ID NO 142]

CRF1R EC50 (CRF1R) [nM],CRF1R Emax (CRF1R) [%],CRF2R EC50 (CRF2R) [nM],CRF2R Emax (CRF2R) [%],Binder
232,100,11.1,85.5,ZGPPISIDLPLELLRKMIEIEKQEKEKQQATTNARILARV (C-terminal amide) [SEQ ID NO 143]
567,100,9.16,85.5,ZGPPISIDLPLQLLRKMIEIEKQEKEKQQATTNARILARV (C-terminal amide) [SEQ ID NO 144]
196,91.3,7.8,69,ZGPPISIDLPLHLLRKMIEIEKQEKEKQQATTNARILARV (C-terminal amide) [SEQ ID NO 145]
103,100,8.2,84.5,ZGPPISIDLPFHLLRKMIEIEKQEKEKQQATTNARILARV (C-terminal amide) [SEQ ID NO 146]
102,96,6.75,94,ZGPPISIDLPFYLLRKMIEIEKQEKEKQQATTNARILARV (C-terminal amide) [SEQ ID NO 147]
85.3,86,6.56,97,ZGPPISIDLPFQLLRKMIEIEKQEKEKQQAAANRLLLDTV (C-terminal amide) [SEQ ID NO 15]
295,100,9.45,51.5,ZGPPISIDLPFQLLRKMIEIEKQEKEKQQATTNARILARV (C-terminal amide) [SEQ ID NO 148]
1000,40.7,26.2,95.5,ZGPPISIDLPIYLLRKMIEIEKQEKEKQQATTNARILARV (C-terminal amide) [SEQ ID NO 149]
1000,5.7,34.6,70.5,ZGPPISIDLPIQLLRKMIEIEKQEKEKQQATTNARILARV (C-terminal amide) [SEQ ID NO 150]
1000,19.9,36.8,96,ZGPPISIDLPTYLLRKMIEIEKQEKEKQQATTNARILARV (C-terminal amide) [SEQ ID NO 151]
> 100,4,> 100,19,SQEIVLSLDVPIGLLREVLEMTKADQLAQQAHSNRKLLDIA-NH2 [SEQ ID NO 152]
> 100,7,9.28,97,ZGIVLSLDVPIGLLRKMIEIEKQEKEKQQAANNRLLLDTI (C-terminal amide) [SEQ ID NO 153]
> 100,7,10.3,100,IVLSLDVPIGLLQILIEIEKQEKEKQQAANNRLLLDTI-NH2 [SEQ ID NO 154]
40.6,16,20.6,94,IVLSLDVPIGLLQILLEMTKADQLAQQAHSNRKLLDIA-NH2 [SEQ ID NO 155]
> 100,6,9.29,79,ZGPPISIDLSLELLRKMIEQARARAAREQATTNARILARV (C-terminal amide) [SEQ ID NO 156]
100,91,42,60.6,SQEPPISLDLTFHLLREVLEQARARAAREQATTNARILARV-NH2 [SEQ ID NO 157]
136,98,7.88,86,ZGPPISIDLPFQLLRKMIEIEKQEKEKQQATTNRLLLDTV (C-terminal amide) [SEQ ID NO 16]
> 100,15,6.37,89,IVLSLDVPIGLLQILLEIEKQEKEKQQAANNRLLLDTI-NH2 [SEQ ID NO 158]
